# Reference: publication PMC11468790, “New Bacterial Aryl Sulfotransferases: Effective Tools for Sulfation of Polyphenols” (Journal of Agricultural and Food Chemistry, 2024)
# B1: EcAST (Escherichia coli CFT073) (protein)
# chain: AGFKPAPPAGQLGAVIVDPYGNAPLTALVDLDSHVISDVKVTVHGKGEKGVEISYPVGQESLKTYDGVPIFGLYQKFANKVTVEWKENGKVMKDDYVVHTSAIVNNYMDNRSISDLQQTKVIKVAPGFEDRLYLVNTHTFTAQGSDLHWHGEKDKNAGILDAGPATGALPFDIAPFTFIVDTEGEYRWWLDQDTFYDGRDRDINKRGYLMGIRETPRGTFTAVQGQHWYEFDMMGQVLEDHKLPRGFADATHESIETPNGTVLLRVGKSNYRRDDGVHVTTIRDHILEVDKSGRVVDVWDLTKILDPKRDALLGALDAGAVCVNVDLAHAGQQAKLEPDTPFGDALGVGPGRNWAHVNSIAYDAKDDSIILSSRHQGVVKIGRDKQVKWILAPSKGWEKPLASKLLKPVDANGKPITCNENGLCENSDFDFTYTQHTAWISSKGTLTIFDNGDGRHLEQPALPTMKYSRFVEYKIDEKKGTVQQVWEYGKERGYDFYSPITSIIEYQADRNTMFGFGGSIHLFDVGQPTVGKLNEIDYKTKEVKVEIDVLSDKPNQTHYRALLVRPQQMFK
# notes: C-terminal His6 tag, pET-26b(+) NcoI/SacI, E. coli BL21(DE3)pLysS, IMAC, ca. 70 kDa
# Substrate: O=[N+]([O-])c1ccc(OS(=O)(=O)O)cc1
# Experiment: purified protein
# Type: biochemical, Escherichia coli
# Settings: varied donor pNPS 0.02-50 mM, acceptor phenol (5-200 mM), 30 °C, activity buffer Tris-glycine pH 8.9
protein,measurement,value
B1,Km,710 ± 30 µM
same,kcat,41.1 ± 0.5 s⁻¹
same,kcat/Km,57000 M⁻¹ s⁻¹
